Assay: soluble on expression in E. coli; label from the status in PepcDB or PDB records

Sequence | soluble on expression in E. coli
AHHHHHHASAKWVCKICGYIYDEDAGDPDNGISPGTKFEELPDDWVCPICGAPKSEFEKLEDGSFKLYSLAREFARDLLFEINGDVVTLSIKGVLLANTSSTSSNFSIFEVSENEFILAIQTSGYVVYLGIEAEEEIEEEVYPSLVRIIISEVMPIINNLVQVAKELSYKGADILLDDNMSSSLREAMYNLLLKHKKGKSPYEQVEVA | soluble
MRQSSQARETTETKIKLNLQLDESTNVSIQTGVGFFDHMLTLFARHGRFGLQVEAEGDVFVDAHHTVEDVGIVLGNCLKEALQNKEGINRYGSAYVPMDESLGFVAIDISGRSYCVFQGELTNPKLGDFDTELTEEFFRAVAHAANITLHARVLYGSNTHHKIEALFKAFGRALREAVEKNANITGVNSTKGML | not soluble
MSLALYLGNKRMNDMYYTIGQVAKMQHLTISQIRYYDKQGLFPFLQRNEKGDRIFNEEALKYLEMILCLKNTGMPIQKIKQFIDWSMEGDSTILHRLKLMKQQEANVLQLIQDTEKNLKKIQQKIAKYEDEISSANATTKEGHHHHHH | soluble
MEICADELKKVLNTVVNKHKDLKTHGFTLESCRSMIALMDTDGSGKLNLQEFHHLWNKIKAWQKIFKHYDTDQSGTINSYEMRNAVNDAGFHLNNQLYDIITMRYADKHMNIDFDSFICCFVRLEGMFRAFHAFDKDGDGIIKLNVLEWLQLTMYA | soluble
MDAPKAGYAFEYLIETLNDSSHKKFFDVSKLGTKYDVLPYSIRVLLEAAVRNCDGFLMKKEDVMNILDWKTKQSNVEVPFFPARVLLQDFTGIPAMVDFAAMREAVKTLGGDPEKVHPACPTDLTVDHSLQIDFSKCAIQNAPNPGGGDLQKAGKLSPLKVQPKKLPCRGQTTCRGSCDSGELGRNSGTFSSQIENTPILCPFHLQPVPEPETVLKNQEVEFGRNRERLQFFKWSSRVFKNVAVIPPGTGMAHQINLEYLSRVVFEEKDLLFPDSVVGTDSHITMVNGLGILGWGVGGIETEAVMLGLPVSLTLPEVVGCELTGSSNPFVTSIDVVLGITKHLRQVGVAGKFVEFFGSGVSQLSIVDRTTIANMCPEYGAILSFFPVDNVTLKHLEHTGFSKAKLESMETYLKAVKLFRNDQNSSGEPEYSQVIQINLNSIVPSVSGPKRPQDRVAVTDMKSDFQACLNEKVGFKGFQIAAEKQKDIVSIHYEGSEYKLSHGSVVIAAVISCTNNCNPSVMLAAGLLAKKAVEAGLRVKPYIRTSLSPGSGMVTHYLSSSGVLPYLSKLGFEIVGYGCSTCVGNTAPLSDAVLNAVKQGDLVTCGILSGNKNFEGRLCDCVRANYLASPPLVVAYAIAGTVNIDFQTEPLGTDPTGKNIYLHDIWPSREEVHRVEEEHVILSMFKALKDKIEMGNKRWNSLEAPDSVLFPWDLKSTYIRCPSFFDKLTKEPIALQAIENAHVLLYLGDSVTTDHISPAGSIARNSAAAKYLTNRGLTPREFNSYGARRGNDAVMTRGTFANIKLFNKFIGKPAPKTIHFPSGQTLDVFEAAELYQKEGIPLIILAGKKYGSGNSRDWAAKGPYLLGVKAVLAESYEKIHKDHLIGIGIAPLQFLPGENADSLGLSGRETFSLTFPEELSPGITLNIQTSTGKVFSVIASFEDDVEITLYKHGGLLNFVARKFS | soluble
MGSDKIHHHHHHMAATFGPRIARADENGQGSEHVALSWQKMDASGWRSGEASPAALHSDHHCRRGFAMSTRDADDRREYYRIEDTLALEFRPAGAVEDGLESEPGATLFSLLSDLHLMDYESQHLLRHISERDRTLANYLKVMNKRIDLLGQVMVQSLLKEIGEPRKVSLSEGGVSFRHDRALPVGQLLVLRMVLLPQGFGLELRARVIHAQPHDDEFEIGTEFEALSDAQRQLLARHILQKQAQQRRLARAGQGPLGEPGQPSST | not soluble
MGSDKIHHHHHHVDGTSKQVIKRDKMITQAISQLTPQNKLLVEEINKNVQDTILERLNMNIAGRWNDSSLSLTLMKSTIKFVPVIDSPSRLYLVNDSEKVFRIPEKFACFYGQNDNGETIYFYAIYHAENFMKDTNPKSYYQGYVEVFGKEAADKMVESSIKRTEAERWEIMSFTPQKNETKKFEYAREHSDDGTFFILTRENTYPHICFFKDKKPYYCWGANQDELSMEPLENYLKP | not soluble
MKAPFFNAPIFRQLIEFKSSTYTYIIGCHKTGKAVIIDPVVDTVSRDIQIIRDLNLDLIYGLNTHVHADHITGTNSLKTVFPTMKSVLSSKSGGEADKYVSDGEIIEIGGLKLEVRETPGHTNGCLTYVEHSLRSAFTGDALLIRACGRTDFQQGNPASLFDSVHDKIFTLPEDYVVYVGHNYNGVLQTTVWEEKNLNPRLTKSKDQFVEIMKNLKLNYPKQIDKAVPANMVDGKGH | not soluble
MPELPEVETVRRELEKRIVGQKIISIEATYPRMVLTGFEQLKKELTGKTIQGISRRGKYLIFEIGDDFRLISHLRMEGKYRLATLDAPREKHDHLTMKFADGQLIYADVRKFGTWELISTDQVLPYFLKKKIGPEPTYEDFDEKLFREKLRKSTKKIKPYLLEQTLVAGLGNIYVDEVLWLAKIHPEKETNQLIESSIHLLHDSIIEILQKAIKLGGSSIRTYSALGSTGKMQNELQVYGKTGEKCSRCGAEIQKIKVAGRGTHFCPVCQQK | soluble
MKASTVLQIAYLVSQESKCCSWKVGAVIEKNGRIISTGYNGSPAGGVNCCDYAAEQGWLLNKPKHAIIQGHKPECVSFGSTDRFVLAKEHRSAHSEWSSKNEIHAELNAILFAAENGSSIEGATMYVTLSPCPDCAKAIAQSGIKKLVYCETYDKNKPGWDDILRNAGIEVFNVPKKNLNKLNWENINEFCGE | soluble
MSLDPAHTPDPAHPHDQEAAHAEDPARAIGSARLLDVDPLLDDPGTRIVVCCGSGGVGKTTTAAALGLRAAERGRKVVVLTIDPARRLAQSMGIDSLDNIPRRVKGIDDSASGELHAMMLDMKRTFDEIVEAHADRERAAAILSNPFYQSLSAGFAGTQEYMAMEKLGQLRARDEWDLIIVDTPPSRSALDFLDAPKRLGSFLDGKLIRLLTAPAKLGGRAGMKFLNVGMSMMTGTLGKLLGGQLLKDVQTFVAAMDTTFGGFRTRADATYKLLQAPGTAFLVVAAPERDALREAAYFVERLAAEDMPLAGLVLNRVHGSGAAQLSAERALAAAENLDLAADPGSTENLEESRIVDQEGGKAGLRNSPDTYGSSESPADLTPADQTPASSEGSPATDGAVEQLTAGLLILHAERMQLLSREQRTRDRFAALHPEVAVAEVAALPGDVHDLTGLRDIGDRLAANRPELPTSPGGALEHHHHHH | soluble
MSLIRANAGDWKKYTFELTPDKTDENARLAIYLEEKGRIQVDMVTLMNGADRQFCGLPLRNDIGQAMVDQGLRFLRYGGTMVNAPEYRFKKMIGDRAERPPYKGHWYTYSTNGFGIEDFLHFCEKAGFMPAYAVNVEESAQDMADMIEYLNGSVDTKWGKKRAENGHPEPYGLKYLEIGNEEVIWGDIEADYQHYIDRFNDIYEAVHAKDPEVQFIHSAWWRPESPNMEKVFKALDGKAAYWDYHPWTDDLGSHVNIDRELTDMKAKFLKWNPKTSMRCAIFEENGNLHNVQRAIVHATVQNVVRRHGDFILTTCAANALQPYLQNDNGWDQGQIFFTSGQVWGMPTFYAQQMSSAHHHPLRLWSETVGELDMTATTNEARDEVILHVVNTSSEVRETQVSLSGFIPKGNMEIYTLSGELNDENLPDTPTWILPKATWKQAPGSDFTYSFPGYSYTIVVLKEGHHHHHH | not soluble
MKFAFIAKHRSIWPVAWLCEALGVSRSGFHAWFNRSPSEHARHDEVLLERIKQSFQSSDRTYGARRVWHDVLEEGLSCGLHRIERLMRLNALRARPRRRGFPKDAGDRPVVMPNVLDRQFVADRPNQKWVADFTYIWTAEGWLYVAAVIDLFSRRVVGWSMNANMTAQLVTDALIMAIWRRGKPDALLHHSDQGSQYTSEQFQRLMGDHGITCSMSRSGNVWDNAAMESFFSSLKTERTARKVYRTRNDARADVFDYIERFYNPKRRHSTLGYLSPDDFETKVGLA | soluble
MAKILVFDEAARRALERGVNAVANAVKVTLGPRGRNVVLEKKFGSPTITKDGVTVAKEVELEDHLENIGAQLLKEVASKTNDVAGDGTTTATVLAQAIVREGLKNVAAGANPLALKRGIEKAVEAAVEKIKALAIPVEDRKAIEEVATISANDPEVGKLIADAMEKVGKEGIITVEESKSLETELKFVEGYQFDKGYISPYFVTNPETMEAVLEDAFILIVEKKVSNVRELLPILEQVAQTGKPLLIIAEDVEGEALATLVVNKLRGTLSVAAVKAPGFGDRRKEMLKDIAAVTGGTVISEELGFKLENATLSMLGRAERVRITKDETTIVGGKGKKEDIEARINGIKKELETTDSEYAREKLQERLAKLAGGVAVIRVGAATETELKEKKHRFEDALNATRAAVEEGIVPGGGVTLLRAISAVEELIKKLEGDEATGAKIVRRALEEPARQIAENAGYEGSVIVQQILAETKNPRYGFNAATGEFVDMVEAGIVDPAKVTRSALQNAASIGALILTTEAVVAEKPEKKESTPAFAGAGDMDF | soluble
AAKGTAETKQEKSFVDWLLGKITKEDQFYETDPILRGGDVKSSGSTSGKKGGTTSGKKGTVSIPSKKKNGNGGVFGGLFAKKD | soluble
MGSDKIHHHHHHMAIACVFTRASCGVEAPRVTVEVHLSNGLPAFNLVGLPETSVKEAKERVRSALINAGFEFPQKRITVNLAPADLPKQGGRYDLPIAVGILAASNQVPAKALHQCEFVGGLALSGQIRPCSGLLPAIIAARNDQHHFFMPIENRHEAELVGYKHSYFVAHLQNLAAFLHGQAQLPLLDTLPEWIEEEIQAQSSLCMSDVIGQYQAKHGLEIAAAGGHNMLFIGPPGTGKSMLANRIIPLLPKLTYDEAIEVAAIHSVAGLHVKPQNFLNRPFRSPHHTSSSIALIGGGSHPKPGEISLAHRGILFLDEIAEFPRKVLDCLREPLETGQVEISRAAAKLTFLSRFQLIAAMNPSPCGDTERARSTPDQIQRYLSRLSGPFLDRFDLTVDVPKLPAGTLTQQHQPSESSVEIAKRVKQARDLQLSRSGVLNSELTPKQLKQDGAITQPDLAFLEQSVVSLGLSVRSFHRIQRVSRTIADLQQSPTTERSHIAQALGYRAMDRLLAKLNQQ | not soluble
MGSDKIHHHHHHMNTAPFKLEADFASALPTMAAPWQGEEAPNPELVILNDDLAYSLGLDPTWLRTPEGVQFLLGLNPEPLTKAVAQAYSGHQFGQFVASLGDGRALLLGEARSADGVLHDIHLKGSGRTQFSRGADGRAVLGPVLREYIISEAMHALGVPTTRSLAVISTGRKIQRGSVAPGAVLVRVATSLIRVGSFQYSNISGGIELSQHLANYTITRHFPSLVAELSAPTPATYVSLFKAILQRQADTVGKWTRLGFVHGALNTDNTLISGETVDYGPCAFMERYRGDAKFSSIDTYGRYKFENQPMILGWNMARLVETLLPLLGATPDEGMTAAQEALVEFDDLCEQAIRKEFATALGLDESDTGTVEQFRELLYLHNPDITTLLRALTDNTAPPSGFEAFVHDWKTQDPDIEAMRAVNPLFIPRNHLVEAALADAVEGNLEKFHELLAAVTNPFDPTAGPDELRLPSEEGFEEDYMTFCGT | not soluble
MFKHDCQFEDLRIIAQRVNPLDPTWNEWTLVACQKCKMLKEWQHHSEEQMHGGDLHITALPTHDYLHHIYGIVESDVDLILTHQKKARRYNRYTNAVEEHDV | not soluble
MNYQNDDLRIKEIKELLPPVALLEKFPATENAANTVAHARKAIHKILKGNDDRLLVVIGPCSIHDPVAAKEYATRLLALREELKDELEIVMRVYFEKPRTTVGWKGLINDPHMDNSFQINDGLRIARKLLLDINDSGLPAAGEFLDMITPQYLADLMSWGAIGARTTESQVHRELASGLSCPVGFKNGTDGTIKVAIDAINAAGAPHCFLSVTKWGHSAIVNTSGNGDCHIILRGGKEPNYSAKHVAEVKEGLNKAGLPAQVMIDFSHANSSKQFKKQMDVCADVCQQIAGGEKAIIGVMVESHLVEGNQSLESGEPLAYGKSITDACIGWEDTDALLRQLANAVKARRG | soluble

— the DeepSol protein solubility set
